Laboratory results from patent EP4484563A1.

What was measured:
Assay in all cases: cell-based or functional assay
CD14 = target: T1, CD14 (UniProt P08571)
T1 sequence: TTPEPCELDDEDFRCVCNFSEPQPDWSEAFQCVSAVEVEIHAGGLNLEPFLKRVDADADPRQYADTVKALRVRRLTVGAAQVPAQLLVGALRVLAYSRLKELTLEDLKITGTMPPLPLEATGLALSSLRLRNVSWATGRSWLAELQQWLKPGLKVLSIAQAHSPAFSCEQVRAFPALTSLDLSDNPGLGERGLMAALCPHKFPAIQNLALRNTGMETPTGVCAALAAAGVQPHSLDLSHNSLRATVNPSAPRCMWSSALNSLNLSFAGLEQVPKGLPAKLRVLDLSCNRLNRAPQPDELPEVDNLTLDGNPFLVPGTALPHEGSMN

[1] = target: T cell receptor (TCRab) (human)
human CD8a (human) = human CD8a (human) (UniProt P01732)
Chain of UniProt P01732 (P01732 22-235): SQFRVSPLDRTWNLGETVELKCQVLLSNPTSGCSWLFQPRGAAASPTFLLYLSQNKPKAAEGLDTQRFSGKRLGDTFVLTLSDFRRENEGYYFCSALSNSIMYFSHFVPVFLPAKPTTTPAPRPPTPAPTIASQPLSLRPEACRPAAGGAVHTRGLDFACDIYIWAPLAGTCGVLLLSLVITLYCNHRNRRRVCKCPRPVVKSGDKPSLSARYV

B1: membrane anchored anti-CD14 scFv (scFv)
scFv: DDVQLQQSGPGLVKPSQSLSLTCTVTGYSITSDSAWNWIRQFPGNRLEWMGYISYSGSTSYNPSLKSRISITRDTSKNQFFLQLNSVTTEDTATYYCVRGLRFAYWGQGTLVTVSSGGGGSGGGGSGGGGSDIVLTQSPASLAVSLGQRATISCRASESVDSYVNSFLHWYQQKPGQPPKLLIYRASNLQSGIPARFSGSGSRTDFTLTINPVEADDVATYYCQQSNEDPYTFGGGTKLEIK
CD14
  percentage transduction of primary monocytes versus non-stimulated PBMCs (GFP, flow cytometry, day 7): < 2%

B2: Nanobody (VHH) CD14 3RMB1 (VHH)
VHH: QVQLQESGGGLVQSGGSLRLSCAVSGSIFSIVDMGWYRQAPGKGRELVAELSDGSTNYADSVLGRFTISRDNAKNTVYLQMNSLKPEDTAVYYCNADLTGSSWSPYRYLEVWGQGTQVTVSS
CD14
  percentage transduction of target negative cells (flow cytometry, 7-14 days): < 1%

B3: TCRab VHH (VHH)
VHH: EVQLVESGGGLVQPGGSLRLSCAASGDVHKINILGWYRQAPAKEREMVAHITIGDATDYADSAKGRFTISRDEAKNMVYLQMNSLKPEDTAVYFCRAYSRIYPYNYWGQGTLVTVSS
[1]
  percentage transduction of target negative cells (flow cytometry, day 7): < 1%

B4: membrane anchored VHH targeting human CD8a (VHH)
VHH: EVQLVESGGGLVQPGGSLRLSCAASGFTFDDYVIGWFRQAPGKGREGVACIRIFDRHTYYADSVKGRFTISSDNSKNTVYLQMNSLRAEDTATYYCAAGSFFGCTRPEGDMDYFGQGTLVQVQS
Human CD8a (human)
  percentage transduction of target negative cells (flow cytometry, day 7): < 1%
